This note sets out measurements from US20250051437A1 (University of California, published 2025).

Where no end group is shown, it is not given here.

In general, Kd refers to the equilibrium constant for the complex coming apart. High values mean weaker binding, low ones tighter binding. For orientation: EC50 means the concentration that produces a half-maximal response. A lower EC50 goes with greater potency.

In assay [1] the target is T1, human CDH17-mGFP fusion protein overexpressed on HEK293T cells (clone G11) (human, UniProt Q12864 23-832).
T1 construct: also called HEK293T CDH17mGFP Clone G11; HEK293T Human CDH17mGFP G11; not shown: mGFP fluorescent protein fused to CDH17
The experiment in a line: KinExA, cell-based, HEK293T human CDH17mGFP G11 (same value as r12). The procedure: (§1) The cell-based antibody affinity (KD) of the anti-CDH17 antibodies was measured by KinExA 4000 (Sapidyne Instrument, Boise, Idaho). Briefly, HEK293T overexpressing CDH17-fluorescent protein fusion (i.e., human CDH17-mGFP, monkey CDH17-mGFP, mouse CDH17-mGFP or rat CDH17-mGFP) were detached with Versene and equilibrated with either 50 pM, 200 pM, 20 nM, or 50 nM antibody in 2% FBS/DMEM at 4° C. overnight. The cell concentration started at 5×10⁶ cells/mL or 1×10⁷ cells/mL and 2-fold serial dilutions were performed up to 10 points. The next day, the cells were centrifuged at 1500 rpm for 10 min and the supernatants were saved. […] In contrast, while the humanized anti-CDH17 antibody, 07-0653-h43, fails to bind mouse CDH17 protein, it binds rat CDH17 protein equally well as to human and monkey CDH17 protein such that its Kp is less than about 1 nM for human, monkey and rat CDH17 proteins with overlapping 95% confidence interval values.

The target of another assay is T2, Peptide 8 (also: biotin label, position not given here).
T2 construct: LDANGII with the third residue A changed to G; also called LDGNGII
T2 peptide: LDGNGII
The experiment in a line: titration ELISA, antibody 1500 to 0.157 ng/ml, biotinylated peptide on streptavidin-coated plate.

A further assay addresses T3, Peptide 1 (also: biotin label, position not given here).
T3 construct: also called Original 7-mer peptide; LDANGII
T3 peptide: LDANGII
Described as above.

Another assay has as its target T4, Peptide 2 (also: biotin label, position not given here).
T4 construct: LDANGII with the first residue L changed to A; also called ADANGII
T4 peptide: ADANGII
Described as above.

The next assay concerns the target T5, Peptide 7 (also: biotin label, position not given here).
T5 construct: LDANGII with the seventh residue I changed to A; also called LDANGIA
T5 peptide: LDANGIA
The description is as above.

For assay [2], the target named is T6, biotinylated 15-mer peptide 19 of the CDH17 ECD peptide scan (human, also: biotin label, position not given here).
T6 peptide: QVAALDANGIIVEGP
The experiment in a line: titration ELISA on biotinylated peptide captured on streptavidin plates. The procedure: (§2) For the ELISA, 1 μl of each biotinylated peptide plus 99 μl of peptide coating buffer (40% DMSO and 0.05% Tween20 in PBS) was added to a streptavidin-coated microtiter plate well. The plate was incubated overnight at 4° C. without shaking. The plate was then washed 4 times with 300 μl washing buffer (PBS with 0.05% Tween20). 200 μl blocking buffer (PBS with 400 μM biotin and 20% sucrose) was added to each well and the plate incubated for 30 min at room temperature without shaking. After 3 times washing with washing buffer, 300 μl of SuperBlock T20 (TBS) Blocking Buffer (Thermo Scientific, #37536) was applied per well and incubated at room temperature for 1 hour. […]
(In general: ELISA stands for enzyme-linked immunosorbent assay.)

For assay [3], the target named is T7, biotinylated 15-mer peptide 18 of the CDH17 ECD peptide scan (human, also: biotin label, position not given here).
T7 peptide: THNLQVAALDANGII
The assay is described as above. The procedure: as §2

Assay [4] has as its target T8, biotinylated 15-mer peptide 20 of the CDH17 ECD peptide scan (human, also: biotin label, position not given here).
T8 peptide: LDANGIIVEGPVPIT
Described as above. The procedure:
as §2

The target in assay [5] is T1, human CDH17-mGFP fusion protein …. The experiment in a line: KinExA, cell-based, HEK293T CDH17mGFP clone G11. The procedure: as §1
On the technique in general: A kinetic exclusion assay measures how much of one partner remains free in solution.

The target is the same in assay [6]. The experiment in a line: KinExA, cell-based, HEK293T overexpressing human CDH17-mGFP (FIG. 16). The procedure: as §1
Assay [7] has the same target. The experiment in a line: flow cytometry (iQue) on HEK293T CDH17 mGFP clone G11 (human), 0.2 µg Ab. Background: A flow cytometer gives signals particle by particle.
Assay [8] has as its target T9, human cadherin-17 (CDH17), endogenously expressed on human cancer cell lines (LS513, SNU-C1, PaTu8988s, … (human, UniProt Q12864 23-832)).
T9 construct: also called LS513 (Colon, CDH17+); HPAF2
The experiment in a line: flow cytometry (iQue) on LS513 cells, 1 µg Ab.

Assay [9] addresses T1, human CDH17-mGFP fusion protein …. The experiment in a line: flow cytometry on HEK293T human CDH17mGFP G11, 20 µg/ml.
Assay [10] has as its target T9, human cadherin-17 (CDH17), endogenously …. The experiment in a line: flow cytometry (iQue) on LS513 cells, 0.2 µg Ab.
Assay [11] has as its target T10, rat CDH17 fused to moxGFP, overexpressed on HEK293T cells (rat, UniProt P55281 22-827).
T10 construct: whole, on cells; also called HEK293T Rat CDH17mGFP mass pop; rat CDH17-moxGFP
The experiment in a line: flow cytometry on HEK293T rat CDH17mGFP mass population, 20 µg/ml.

T10 sequence (P55281 22-827): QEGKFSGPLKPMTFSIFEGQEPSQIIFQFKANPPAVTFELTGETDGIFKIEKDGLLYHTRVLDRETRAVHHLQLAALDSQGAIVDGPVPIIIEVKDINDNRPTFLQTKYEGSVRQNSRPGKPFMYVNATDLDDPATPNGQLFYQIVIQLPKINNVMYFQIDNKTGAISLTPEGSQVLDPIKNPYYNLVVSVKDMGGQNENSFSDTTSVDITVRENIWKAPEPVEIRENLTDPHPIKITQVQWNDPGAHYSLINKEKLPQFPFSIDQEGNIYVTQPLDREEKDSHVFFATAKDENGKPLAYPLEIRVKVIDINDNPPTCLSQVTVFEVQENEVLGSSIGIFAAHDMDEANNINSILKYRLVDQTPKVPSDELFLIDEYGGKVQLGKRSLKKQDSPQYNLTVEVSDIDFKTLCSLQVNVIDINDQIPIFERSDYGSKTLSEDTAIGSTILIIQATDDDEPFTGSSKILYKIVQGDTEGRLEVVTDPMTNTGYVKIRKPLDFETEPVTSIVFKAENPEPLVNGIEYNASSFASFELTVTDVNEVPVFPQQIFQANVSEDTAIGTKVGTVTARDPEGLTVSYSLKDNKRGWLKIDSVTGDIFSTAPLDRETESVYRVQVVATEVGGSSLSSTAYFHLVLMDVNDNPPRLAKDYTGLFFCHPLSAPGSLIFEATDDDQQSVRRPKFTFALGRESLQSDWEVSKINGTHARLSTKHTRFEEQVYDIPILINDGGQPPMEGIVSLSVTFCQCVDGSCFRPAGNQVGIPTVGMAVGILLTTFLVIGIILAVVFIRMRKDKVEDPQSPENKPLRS

B1: humanized anti-CDH17 antibody 07-0663-h7 (antibody, human IgG1, kappa, V domains shown)
VH: QVQLVQSGAEVKKPGSSVKISCKVSGYTFTDHTIHWMRQAPGQGLEWIGYIFPRDDIVVYAQKFQGRATLTADKSTSTAYMELSSLRSEDTAVYYCARPPYYYSRNFYFDYWGQGTTLTVSS
VL: DIQMTQSPSSLSASVGDRVTITCRVSSIISSSKLHWYQQKPGKAPKPLIYGTSTLASGVPSRFSGSGSGTDYTLTISSLQPEDFATYYCQQWSNYPFTFGQGTKLEIKR
notes: Human IgG1 / kappa
B1: the values for the Kd in [1], in assay [5] and in assay [6] were 0.152 nM, 0.152 nM and less than 1 nM, respectively. The EC50 with Peptide 8 is 2.98 nM; with Peptide 1, 0.16 nM; in the assay with Peptide 2, 0.126 nM; in the assay with Peptide 7, 0.117 nM. Also, the binding result in assay [2], in assay [3] and in assay [4] was “binds” throughout. The “Antibody Binding Activity by Flow iQue” value turned out to be 57600 in assay [7], 2.3e+06 in assay [8] and 2.24e+06 in assay [10]. In addition, the “Cross Reactivity by Flow” value in assay [9] came to 57600; in assay [11], 2160.
